Laboratory results: doi:10.1101/2025.05.07.652675 (bioRxiv, 2025)
Numbering of substitutions follows the chain as printed. In names and notes the source's numbering stands.

T1: SUMO-FtsZ (6×His-SUMO fusion of full length FtsZ) (E. coli, UniProt P0A9A6 1-383)
T1 sequence: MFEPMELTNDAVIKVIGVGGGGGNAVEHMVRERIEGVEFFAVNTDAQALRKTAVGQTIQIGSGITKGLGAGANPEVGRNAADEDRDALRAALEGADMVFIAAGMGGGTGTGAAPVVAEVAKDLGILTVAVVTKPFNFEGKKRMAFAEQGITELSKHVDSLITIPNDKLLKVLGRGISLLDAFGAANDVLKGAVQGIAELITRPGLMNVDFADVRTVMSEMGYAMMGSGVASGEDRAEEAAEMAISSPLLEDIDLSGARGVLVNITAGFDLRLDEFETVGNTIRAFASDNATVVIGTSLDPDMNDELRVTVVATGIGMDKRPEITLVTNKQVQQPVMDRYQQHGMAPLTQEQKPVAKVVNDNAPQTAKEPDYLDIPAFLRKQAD

B1: 6×His-ZapC (natural protein)
chain: not shown
B2: FtsZ^1-370 (domain or fragment)
chain: MFEPMELTNDAVIKVIGVGGGGGNAVEHMVRERIEGVEFFAVNTDAQALRKTAVGQTIQIGSGITKGLGAGANPEVGRNAADEDRDALRAALEGADMVFIAAGMGGGTGTGAAPVVAEVAKDLGILTVAVVTKPFNFEGKKRMAFAEQGITELSKHVDSLITIPNDKLLKVLGRGISLLDAFGAANDVLKGAVQGIAELITRPGLMNVDFADVRTVMSEMGYAMMGSGVASGEDRAEEAAEMAISSPLLEDIDLSGARGVLVNITAGFDLRLDEFETVGNTIRAFASDNATVVIGTSLDPDMNDELRVTVVATGIGMDKRPEITLVTNKQVQQPVMDRYQQHGMAPLTQEQKPVAKVVNDNAPQTAKEPD
B3: FtsZ (wild type, untagged) (natural protein)
chain: T1 sequence
B4: ZapC (untagged) (natural protein)
chain: not shown
B5: SUMO-FtsZ^316-383 (domain or fragment)
chain: GMDKRPEITLVTNKQVQQPVMDRYQQHGMAPLTQEQKPVAKVVNDNAPQTAKEPDYLDIPAFLRKQAD
B6: FtsZ^F285S (untagged) (natural protein)
chain: T1 sequence with F285S
B7: FtsZ^I323L (untagged) (natural protein)
chain: T1 sequence with I323L
B8: FtsZ^D360Y (untagged) (natural protein)
chain: T1 sequence with D360Y
B9: FtsZ^A376T (untagged) (natural protein)
chain: T1 sequence with A376T

What was measured:
FtsZ^I323L (untagged) = target: B7; assay: co-sedimentation
FtsZ^D360Y (untagged) = target: B8; assay: co-sedimentation
FtsZ^A376T (untagged) = target: B9; assay: co-sedimentation
FtsZ^F285S (untagged) = target: B6; assay: BLI
[1] = target: B3; assay: BLI
6×His-ZapC = target: B1; assay: BLI
[2] = target: 6×His-ZapC F30D K94D double mutant (E. coli, UniProt P75862 1-180, F30D | K94D); assay: BLI
[3] = target: the molecule itself; assay: sedimentation of polymers by ultracentrifugation
[4] = target: T1, SUMO-FtsZ (6×His-SUMO fusion of full …); assay: BLI
ZapC (untagged) = target: B4; assay: BLI
[5] = target: the molecule itself; assay: negative stain electron microscopy

B1
binding result (FtsZ^I323L (untagged)): binds
binding result (FtsZ^D360Y (untagged)): binds
binding result (FtsZ^A376T (untagged)): binds
Kd (FtsZ^F285S (untagged)): 6.37 µM
Kd [1]: 0.39 µM

B2
binding affinity relative to wild-type FtsZ (fold lower) (6×His-ZapC): ~3 fold

B3
Kd relative to wild-type ZapC (times higher) [2]: 12 times
binding result [3]: binds

B4
Kd [4]: 1.5 µM

B5
Kd (ZapC (untagged)): 10 µM

B6
binding result [3]: binds

B7
binding result [5]: binds

B8
binding result [5]: binds

B9
binding result [5]: binds
